Source: article PMC13696528 (2026)
No end group written: not given here.

Molecular target: PD-L1 (UniProt Q9NZQ7)
Test: SPR

Sequence of PD-L1 (Q9NZQ7 19-238): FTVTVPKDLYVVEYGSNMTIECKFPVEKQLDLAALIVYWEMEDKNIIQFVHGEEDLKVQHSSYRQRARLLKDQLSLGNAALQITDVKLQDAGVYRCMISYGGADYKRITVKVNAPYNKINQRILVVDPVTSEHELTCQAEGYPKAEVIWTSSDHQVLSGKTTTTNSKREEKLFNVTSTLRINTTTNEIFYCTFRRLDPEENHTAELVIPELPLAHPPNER

Kd: 27.8 nM
Binder: NTGYFYGDQ (also: co-assembled nanofiber with IR-CF3) [PSP (PSP@IR-CF3 nanofiber)]
